Laboratory results published in US20080032340A1 (UNIVERSITY OF ARIZONA, published 2008).
Bridges are numbered along the chain shown (N, C = ends). Where no end group is shown, it is not given here.

How the values were obtained:
[1] = target: T1, NeutrAvidin (UniProt P02701 25-152, chemically deglycosylated and chemically modified to a more neutral isoelectric point (pI=6.3)); test: HABA competition, uncyclized peptides (the filing cites 'FIG. 3B'; FIG. 1B holds these curves)
T1 construct: Bought from Pierce; also called NA; deglycosylated avidin
Method: (§1) FIG. 1: Competitive ligand binding analysis of […] Error bars indicate the standard deviation of three separate assays.
(§2) After 60 minutes, the absorbance of the complex was monitored at 500 nm. To calculate the IC₅₀s of the selected peptides, the average of three separate trials were fitted to the Hill equation,
(§3) Best fit equations were calculated using KaleidaGraph (Synergy Software).

[2] = target: T2, streptavidin (UniProt P22629 37-163, limits assumed); test: HABA competition, 50 µM HABA-streptavidin complex, absorbance at 500 nm
T2 construct: Bought from Pierce; Used free in solution in the HABA assay and immobilized on agarose resin in the fusion protein experiments; also called agarose immobilized streptavidin
Method: as §1
After 60 minutes, the absorbance of the complex was monitored at 500 nm. To calculate the IC₅₀s of the selected peptides, the average of three separate trials were fitted to the Hill equation, […]

[3] = target: T3, avidin (hen egg white (chicken), UniProt P02701 25-152, glycosylated native state); test: HABA competition, 50 µM HABA-avidin complex, absorbance at 500 nm, IC50 converted by Cheng-Prusoff
T3 construct: Bought from Pierce; also called glycosylated parent of NeutrAvidin
Method: as §2, §3

[4] = target: T1, NeutrAvidin; test: HABA competition, 50 µM HABA-NeutrAvidin complex, absorbance at 500 nm, IC50 converted by Cheng-Prusoff
Method: as §2, §3

B1: uncyclized CDRASPYCG (SEQ ID NO: 7) (peptide)
peptide: CDRASPYCG-NH2
modifications: cysteine pairing not given here
notes: Same peptide as m1, used as the linear form; also called linear DRASPY peptide; acyclic counterpart
- Kd [1]: < 500 µM

B2: cyclized CDLASPWCG (SEQ ID NO: 5) (peptide)
peptide: CDLASPWCG-NH2
modifications: disulfide 1-8; N-terminus assumed
SMILES: CC(C)C[C@@H]1NC(=O)[C@H](CC(=O)O)NC(=O)[C@@H](N)CSSC[C@@H](C(=O)NCC(N)=O)NC(=O)[C@H](Cc2c[nH]c3ccccc23)NC(=O)[C@@H]2CCCN2C(=O)[C@H](CO)NC(=O)[C@H](C)NC1=O
notes: Synthetic peptide from Fmoc synthesis on RinkAmide resin, oxidised in PBS with 10% DMSO; also called cyclic DLASPW peptide
- Kd [2]: > 5000 µM
- Kd [3]: 46.2 µM
- Kd [4]: 62.8 µM

B3: cyclized CDRASPYCG (SEQ ID NO: 7) (peptide)
peptide: CDRASPYCG-NH2
modifications: disulfide 1-8; N-terminus assumed
SMILES: C[C@@H]1NC(=O)[C@H](CCCNC(=N)N)NC(=O)[C@H](CC(=O)O)NC(=O)[C@@H](N)CSSC[C@@H](C(=O)NCC(N)=O)NC(=O)[C@H](Cc2ccc(O)cc2)NC(=O)[C@@H]2CCCN2C(=O)[C@H](CO)NC1=O
notes: Synthetic peptide from Fmoc synthesis on RinkAmide resin, oxidised in PBS with 10% DMSO; also called cyclic DRASPY peptide
- Kd [2]: > 5000 µM
- Kd [3]: 44.9 µM
- Kd [4]: 31.5 µM

B4: uncyclized CDRATPYCG (SEQ ID NO: 9) (peptide)
peptide: CDRATPYCG-NH2
modifications: cysteine pairing not given here
notes: Same peptide as m2, used as the linear form; also called linear DRATPY peptide; acyclic counterpart
- Kd [1]: < 500 µM

B5: cyclized CDRATPYCG (SEQ ID NO: 9) (peptide)
peptide: CDRATPYCG-NH2
modifications: disulfide 1-8; N-terminus assumed
SMILES: C[C@@H]1NC(=O)[C@H](CCCNC(=N)N)NC(=O)[C@H](CC(=O)O)NC(=O)[C@@H](N)CSSC[C@@H](C(=O)NCC(N)=O)NC(=O)[C@H](Cc2ccc(O)cc2)NC(=O)[C@@H]2CCCN2C(=O)[C@H]([C@@H](C)O)NC1=O
notes: Synthetic peptide from Fmoc synthesis on RinkAmide resin, oxidised in PBS with 10% DMSO; also called cyclic DRATPY peptide
- Kd [2]: > 5000 µM
- Kd [3]: 28.1 µM
- Kd [4]: 12.5 µM
